This data set concerns Oc1ccccc1O. The data set can be described thus: cells, lysate or membranes. To be noted: catechol 0-150 µM, 35 °C, 50 mM phosphate pH 7.5 (general assay), O2 co-substrate, crude extract.
[1] abbreviates: C-terminally truncated (stop at 289).

Regarding “C23Owt (catechol 2,3-dioxygenase from Planococcus sp. S5) (Planococcus sp. S5)”, the Km (as a rule, the concentration of substrate that gives half-maximal velocity) is listed as 97.74 ± 10.91 µM and the Vmax (in general, the rate approached at saturating substrate) came out at 0.115 µmol/min/mg.

Take “C23Owt (catechol 2,3-dioxygenase from Planococcus sp. S5) (Planococcus sp. S5; C103R)”: under setting [1], the Michaelis-Menten constant (Km) amounted to 66.17 ± 9.44 µM and the Vmax came out at 0.104 µmol/min/mg.

Values taken from article PMC3943285, “Activity of a Carboxyl-Terminal Truncated Form of Catechol 2,3-Dioxygenase from Planococcus sp. S5” (The Scientific World Journal, 2014).
